Experimental data reported in the supplement of paper PMC9112550, “Optimization of the antimicrobial peptide Bac7 by deep mutational scanning” (BMC Biology, 2022).

test system: Escherichia coli TOP10; assay: shrunken log2 fold change of peptide-encoding DNA abundance (4.5 h post-induction vs induction); higher = less antimicrobial activity (less host growth inhibition); settings: time post-induction: 4.5 h; library: site-saturation at positions 5, 18, 19, 20
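Note: peptides expressed intracellularly from a pBAD plasmid library in pooled LB shake-flask culture, induced with 0.3% L-arabinose, DNA abundance read by NGS, three biological replicates, DESeq2 with apeglm shrinkage.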

Row | Sequence | shrunken log2 fold change
1 | RRIRCRPPRLPRPRPRPKQNPRP | 0.136
2 | RRIRHRPPRLPRPRPRPGGFPRP | -0.127
3 | RRIRQRPPRLPRPRPRPALHPRP | 1.38
4 | RRIRDRPPRLPRPRPRPKVYPRP | -0.0329
5 | RRIRTRPPRLPRPRPRPGKAPRP | -0.0369
6 | RRIRERPPRLPRPRPRPTGQPRP | -0.0359
7 | RRIRFRPPRLPRPRPRPSYNPRP | -1.04
8 | RRIRKRPPRLPRPRPRPTMTPRP | 0.608
9 | RRIRERPPRLPRPRPRPHLLPRP | 0.0196
10 | RRIRYRPPRLPRPRPRPYKYPRP | -0.238
11 | RRIRLRPPRLPRPRPRPTVMPRP | 0.105
12 | RRIRMRPPRLPRPRPRPMSGPRP | 0.858
13 | RRIRERPPRLPRPRPRPKWKPRP | -0.0193
14 | RRIRHRPPRLPRPRPRPGTCPRP | -0.318
15 | RRIRIRPPRLPRPRPRPTHWPRP | 0.133
16 | RRIRSRPPRLPRPRPRPEMKPRP | 0.114
17 | RRIRIRPPRLPRPRPRPAMRPRP | 1.37
18 | RRIRQRPPRLPRPRPRPMRKPRP | 0.0266
19 | RRIRDRPPRLPRPRPRPHHYPRP | -0.0954
20 | RRIRFRPPRLPRPRPRPTDNPRP | -0.205
21 | RRIRPRPPRLPRPRPRPYATPRP | -0.446
22 | RRIRRRPPRLPRPRPRPIYDPRP | -0.0515
23 | RRIRVRPPRLPRPRPRPWAMPRP | -0.0382
24 | RRIRMRPPRLPRPRPRPMCFPRP | 0.271
25 | RRIRCRPPRLPRPRPRPAAIPRP | 0.0247

Row | Sequence | shrunken log2 fold change
26 | RRIRARPPRLPRPRPRPWWQPRP | 0.00618
27 | RRIRHRPPRLPRPRPRPNFKPRP | -0.189
28 | RRIRLRPPRLPRPRPRPAGYPRP | -0.0817
29 | RRIRSRPPRLPRPRPRPLSNPRP | -0.00773
30 | RRIRWRPPRLPRPRPRPVICPRP | -0.151
31 | RRIRLRPPRLPRPRPRPIGVPRP | -0.0539
32 | RRIRFRPPRLPRPRPRPEVFPRP | 0.181
33 | RRIRTRPPRLPRPRPRPQRKPRP | 0.138
34 | RRIRSRPPRLPRPRPRPIAAPRP | 0.333
35 | RRIRVRPPRLPRPRPRPFSMPRP | -0.0688
36 | RRIRHRPPRLPRPRPRPMMDPRP | -0.214
37 | RRIRFRPPRLPRPRPRPGWEPRP | 0.0875
38 | RRIRSRPPRLPRPRPRPRGPPRP | 0.568
39 | RRIRDRPPRLPRPRPRPNTMPRP | -0.167
40 | RRIRMRPPRLPRPRPRPTKKPRP | 0.0359
41 | RRIRFRPPRLPRPRPRPVGKPRP | 0.13
42 | RRIRHRPPRLPRPRPRPGNEPRP | -0.364
43 | RRIRDRPPRLPRPRPRPGWTPRP | 0.379
44 | RRIRVRPPRLPRPRPRPQHKPRP | -0.483
45 | RRIRVRPPRLPRPRPRPTGWPRP | 0.377
46 | RRIRKRPPRLPRPRPRPENRPRP | 0.246
47 | RRIRKRPPRLPRPRPRPLRMPRP | 0.236
48 | RRIRIRPPRLPRPRPRPKRSPRP | -0.335
49 | RRIRSRPPRLPRPRPRPCNHPRP | -0.361
50 | RRIRWRPPRLPRPRPRPEKNPRP | 0.686

Row | Sequence | shrunken log2 fold change
51 | RRIRERPPRLPRPRPRPCPKPRP | -0.39
52 | RRIRKRPPRLPRPRPRPMLNPRP | 0.174
53 | RRIRIRPPRLPRPRPRPTLWPRP | 0.22
54 | RRIRARPPRLPRPRPRPWCHPRP | -0.0135
55 | RRIRCRPPRLPRPRPRPFSFPRP | -0.513
56 | RRIRSRPPRLPRPRPRPLSLPRP | 0.0119
57 | RRIRPRPPRLPRPRPRPNKNPRP | -0.24
58 | RRIRMRPPRLPRPRPRPYIYPRP | -0.384
59 | RRIRGRPPRLPRPRPRPFTAPRP | 0.272
60 | RRIRERPPRLPRPRPRPVKEPRP | -0.0153
61 | RRIRLRPPRLPRPRPRPMNLPRP | -0.31
62 | RRIRNRPPRLPRPRPRPFCPPRP | -0.278
63 | RRIRYRPPRLPRPRPRPVHKPRP | -0.564
64 | RRIRERPPRLPRPRPRPLRVPRP | 0.269
65 | RRIRIRPPRLPRPRPRPPQWPRP | 0.205
66 | RRIRLRPPRLPRPRPRPYMNPRP | -1.06
67 | RRIRCRPPRLPRPRPRPEGCPRP | 3.02
68 | RRIRMRPPRLPRPRPRPTSGPRP | 1.06
69 | RRIRARPPRLPRPRPRPKHDPRP | 0.263
70 | RRIRPRPPRLPRPRPRPNWSPRP | 0.0504
71 | RRIRVRPPRLPRPRPRPIRRPRP | 0.0517
72 | RRIRPRPPRLPRPRPRPCCEPRP | -0.116
73 | RRIRTRPPRLPRPRPRPPAWPRP | 0.663
74 | RRIRARPPRLPRPRPRPFGPPRP | 0.0166
75 | RRIRARPPRLPRPRPRPVHSPRP | 0.0799

Row | Sequence | shrunken log2 fold change
76 | RRIRDRPPRLPRPRPRPMDIPRP | 0.0403
77 | RRIRHRPPRLPRPRPRPCFGPRP | 0.104
78 | RRIRIRPPRLPRPRPRPRGSPRP | -0.189
79 | RRIRYRPPRLPRPRPRPAERPRP | 0.0541
80 | RRIRTRPPRLPRPRPRPNMLPRP | -0.45
81 | RRIRIRPPRLPRPRPRPSLGPRP | -0.245
82 | RRIRMRPPRLPRPRPRPAPFPRP | 0.575
83 | RRIRRRPPRLPRPRPRPMGKPRP | 0.35
84 | RRIRDRPPRLPRPRPRPCMKPRP | -0.0664
85 | RRIRNRPPRLPRPRPRPCVHPRP | -0.0018
86 | RRIRTRPPRLPRPRPRPPLWPRP | 0.689
87 | RRIRGRPPRLPRPRPRPLCTPRP | 2.26
88 | RRIRIRPPRLPRPRPRPVTRPRP | 0.0796
89 | RRIRPRPPRLPRPRPRPYWYPRP | -0.958
90 | RRIRRRPPRLPRPRPRPANQPRP | 0.0564
91 | RRIRYRPPRLPRPRPRPNMTPRP | -0.00766
92 | RRIRPRPPRLPRPRPRPMNKPRP | -0.551
93 | RRIRVRPPRLPRPRPRPIHTPRP | -0.305
94 | RRIRPRPPRLPRPRPRPVAYPRP | -0.173
95 | RRIRPRPPRLPRPRPRPAVSPRP | 0.171
96 | RRIRNRPPRLPRPRPRPSRQPRP | 0.0744
97 | RRIRFRPPRLPRPRPRPVLIPRP | -0.17
98 | RRIRWRPPRLPRPRPRPSLDPRP | -0.00135
99 | RRIRFRPPRLPRPRPRPRLAPRP | 0.69
100 | RRIRLRPPRLPRPRPRPTLNPRP | -0.0428

Row | Sequence | shrunken log2 fold change
101 | RRIRYRPPRLPRPRPRPCAFPRP | -0.353
102 | RRIRRRPPRLPRPRPRPEALPRP | 0.115
103 | RRIRGRPPRLPRPRPRPRSVPRP | 0.662
104 | RRIRCRPPRLPRPRPRPRCMPRP | -0.143
105 | RRIRIRPPRLPRPRPRPREHPRP | -0.393
106 | RRIRIRPPRLPRPRPRPQVKPRP | -0.405
107 | RRIRVRPPRLPRPRPRPVTGPRP | -0.233
108 | RRIRTRPPRLPRPRPRPPYRPRP | -0.187
109 | RRIRERPPRLPRPRPRPPENPRP | 0.222
110 | RRIRQRPPRLPRPRPRPDPLPRP | 0.00221
111 | RRIRNRPPRLPRPRPRPEMAPRP | 0.321
112 | RRIRFRPPRLPRPRPRPYCPPRP | -0.721
113 | RRIRCRPPRLPRPRPRPNYFPRP | -0.763
114 | RRIRARPPRLPRPRPRPLEFPRP | 0.231
115 | RRIRMRPPRLPRPRPRPGEGPRP | 1.23
116 | RRIRRRPPRLPRPRPRPLIHPRP | 0.125
117 | RRIRFRPPRLPRPRPRPQRIPRP | -0.695
118 | RRIRIRPPRLPRPRPRPPIVPRP | -0.68
119 | RRIRVRPPRLPRPRPRPVFEPRP | -0.0665
120 | RRIRERPPRLPRPRPRPANMPRP | -0.19
121 | RRIRWRPPRLPRPRPRPGIVPRP | 0.585
122 | RRIRNRPPRLPRPRPRPNVTPRP | -0.361
123 | RRIRDRPPRLPRPRPRPIKMPRP | 0.0713
124 | RRIRIRPPRLPRPRPRPHQRPRP | -0.137
125 | RRIRTRPPRLPRPRPRPTAGPRP | 0.59

Row | Sequence | shrunken log2 fold change
126 | RRIRTRPPRLPRPRPRPSHKPRP | -0.421
127 | RRIRYRPPRLPRPRPRPHAWPRP | -0.129
128 | RRIRLRPPRLPRPRPRPPGTPRP | 0.448
129 | RRIRPRPPRLPRPRPRPKHNPRP | -0.303
130 | RRIRMRPPRLPRPRPRPRKYPRP | 0.276
131 | RRIRIRPPRLPRPRPRPMSEPRP | -0.00782
132 | RRIRMRPPRLPRPRPRPWYKPRP | 0.00884
133 | RRIRPRPPRLPRPRPRPSEQPRP | -0.233
134 | RRIRCRPPRLPRPRPRPMHPPRP | -0.00769
135 | RRIRRRPPRLPRPRPRPYKPPRP | 0.0267
136 | RRIRMRPPRLPRPRPRPVHIPRP | 0.00544
137 | RRIRHRPPRLPRPRPRPMMGPRP | -0.01
138 | RRIRSRPPRLPRPRPRPVPNPRP | 0.105
139 | RRIRHRPPRLPRPRPRPMQGPRP | -0.0154
140 | RRIRKRPPRLPRPRPRPQNQPRP | 0.0634
141 | RRIRTRPPRLPRPRPRPWCWPRP | -0.0632
142 | RRIRTRPPRLPRPRPRPTMRPRP | 0.867
143 | RRIRRRPPRLPRPRPRPQMKPRP | -0.0643
144 | RRIRLRPPRLPRPRPRPYKSPRP | 0.0344
145 | RRIRGRPPRLPRPRPRPEAEPRP | 2.74
146 | RRIRFRPPRLPRPRPRPCIGPRP | -0.1
147 | RRIRNRPPRLPRPRPRPAESPRP | 0.37
148 | RRIRSRPPRLPRPRPRPCTKPRP | -0.581
149 | RRIRPRPPRLPRPRPRPLNGPRP | -0.0765
150 | RRIRFRPPRLPRPRPRPVNHPRP | -0.384
